According to patent US20230295345A1 (published 2023):

T1: cynomolgus monkey TMPRSS6 expressed on HEK293T cells (CynoTMPRSS6-(His)6) (cynomolgus monkey, UniProt Q8IU80 10-811 (human entry))
T1 chain: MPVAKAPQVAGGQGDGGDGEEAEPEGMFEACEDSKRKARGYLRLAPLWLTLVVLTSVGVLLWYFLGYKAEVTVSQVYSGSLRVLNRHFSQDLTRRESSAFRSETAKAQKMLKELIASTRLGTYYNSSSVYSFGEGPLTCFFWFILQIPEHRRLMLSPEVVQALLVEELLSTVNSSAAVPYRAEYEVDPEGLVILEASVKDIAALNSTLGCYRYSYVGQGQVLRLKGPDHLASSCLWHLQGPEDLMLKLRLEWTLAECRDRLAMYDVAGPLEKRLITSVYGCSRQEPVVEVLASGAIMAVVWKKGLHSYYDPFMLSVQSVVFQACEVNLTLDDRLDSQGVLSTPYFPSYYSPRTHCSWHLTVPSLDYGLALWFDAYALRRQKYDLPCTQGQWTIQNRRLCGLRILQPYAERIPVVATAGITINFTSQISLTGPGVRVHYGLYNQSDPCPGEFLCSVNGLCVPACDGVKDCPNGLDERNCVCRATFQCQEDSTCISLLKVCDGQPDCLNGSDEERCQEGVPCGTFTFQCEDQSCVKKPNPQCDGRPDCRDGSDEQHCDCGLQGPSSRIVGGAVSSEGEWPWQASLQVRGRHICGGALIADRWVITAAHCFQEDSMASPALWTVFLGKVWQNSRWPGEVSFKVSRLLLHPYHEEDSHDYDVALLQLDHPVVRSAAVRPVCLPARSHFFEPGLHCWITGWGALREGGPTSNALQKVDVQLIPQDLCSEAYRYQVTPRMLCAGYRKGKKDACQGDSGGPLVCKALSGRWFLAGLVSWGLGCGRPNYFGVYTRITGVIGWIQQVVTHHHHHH

T2: mouse TMPRSS6 expressed on HEK293T cells (MoTMPRSS6-(His)6) (mouse, UniProt Q9DBI0 1-811)
T2 construct: stably expressed in HEK293T cells; also called murine TMPRSS6
T2 sequence: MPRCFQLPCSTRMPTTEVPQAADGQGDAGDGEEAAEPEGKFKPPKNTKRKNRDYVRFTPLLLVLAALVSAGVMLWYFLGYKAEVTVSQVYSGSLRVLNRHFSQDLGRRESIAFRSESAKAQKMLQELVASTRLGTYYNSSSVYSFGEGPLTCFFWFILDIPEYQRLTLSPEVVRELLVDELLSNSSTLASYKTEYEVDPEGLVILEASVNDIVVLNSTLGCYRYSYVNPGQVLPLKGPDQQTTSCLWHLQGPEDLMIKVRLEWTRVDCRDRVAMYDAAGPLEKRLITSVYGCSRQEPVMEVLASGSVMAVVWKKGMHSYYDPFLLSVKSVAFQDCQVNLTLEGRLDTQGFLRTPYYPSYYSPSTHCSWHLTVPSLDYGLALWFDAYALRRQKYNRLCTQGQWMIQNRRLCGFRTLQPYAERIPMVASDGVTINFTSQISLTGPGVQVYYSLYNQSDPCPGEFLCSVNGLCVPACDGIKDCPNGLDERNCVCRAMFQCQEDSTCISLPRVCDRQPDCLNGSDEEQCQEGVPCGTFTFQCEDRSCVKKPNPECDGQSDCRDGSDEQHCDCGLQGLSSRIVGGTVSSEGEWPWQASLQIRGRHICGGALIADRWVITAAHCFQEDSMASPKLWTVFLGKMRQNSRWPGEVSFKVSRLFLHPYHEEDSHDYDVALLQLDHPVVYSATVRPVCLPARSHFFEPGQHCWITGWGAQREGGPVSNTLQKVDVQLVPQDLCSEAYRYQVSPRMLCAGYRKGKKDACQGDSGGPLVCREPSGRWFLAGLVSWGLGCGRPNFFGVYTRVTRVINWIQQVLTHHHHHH


Experiments:
[1] = target: T1, cynomolgus monkey TMPRSS6 expressed on …; test: cell surface ELISA on fixed HEK293T cells expressing cynomolgus monkey TMPRSS6
Description: HEK293T cells stably expressing mouse TMPRSS6 (generated by LakePharma Inc as described above, FIGS. 4J, 4L, 4N, 4P, 4R, 4T) or cynomolgus monkey (generated in house as described above, FIGS. 4K, 4M, 4O, 4Q, 4S, 4U) were fixed with methanol (100%), and washed with dPBS (Dulbecco’s phosphate-buffered saline, Corning Cellgro) before incubation with various concentrations of anti-TMPRSS6 antibodies and their humanized variants diluted in BSA medium (DMEM + 1% Pen/Strep + 10 mM HEPES + 1 mg/ml BSA (Sigma-Aldrich)). Purified mouse IgG (FIGS. 4J-4O) or Human IgG1 (FIGS. 4P-4U) was used as a control. After incubation, cells were washed with BSA medium and then incubated with goat anti-mouse (Invitrogen, FIGS. 4J-4O) or anti-human (Millipore, FIGS. 4P-4U) IgG conjugated with HRP as a 2° antibody. Finally, cells were washed with dPBS to remove unbound antibody and color developed with ELISA liquid substrate (Sigma-Aldrich), followed by stopping the reaction with addition of the same volume of ELISA liquid substrate of 1 M H₂SO₄. Bound antibody was measured by absorbance at OD₄₅₀ₙₘ.

[2] = target: T1, cynomolgus monkey TMPRSS6 expressed on …; test: FACS on HEK293T cells transiently expressing cynomolgus monkey TMPRSS6
Description: (§1) Selected anti-TMPRSS6 antibodies were tested to determine whether any are capable of binding to TMPRSS6 from mouse and/or cynomolgus monkey. HEK293T cells stably expressing human TMPRSS6 (HuTMPRSS6-(His)₆) (generated by LakePharma Inc as described above), HEK293T cells stably expressing mouse TMPRSS6 (MoTMPRSS6-(His)₆) (SEQ ID NO: 98) (generated by LakePharma Inc as described above) and HEK293T cells transiently expressing cynomolgus monkey TMPRSS6 (CynoTMPRSS6-(His)₆) (SEQ ID NO: 99) (generated in house) were collected. HEK293T cells stably expressing human TMPRSS6 were used as a positive control and HEK293T cells were used as a negative control (as described above). Cells were blocked with dPBS + 3% BSA before incubation with anti-TMPRSS6 antibodies diluted in dPBS + 3% BSA. After incubation, cells were washed with dPBS and followed by another incubation with goat anti-mouse IgG conjugated with AlexaFluor-488 as a 2° antibody (Invitrogen). At last, cells were washed with dPBS to remove unbound antibody, re-suspended with dPBS + 1 mM EDTA, and then subjected to FACS analysis using a NOVOCYTE® Flow Cytometer (ACEA Biosciences, Inc., San Diego CA). Bound antibody was determined by excitation at 488 nm and measurement of emission (FITC-A) at 530 nm. Results for these assays are shown in histogram plots in FIGS. 4A-4I.

[3] = target: T2, mouse TMPRSS6 expressed on HEK293T …; test: FACS on HEK293T cells stably expressing mouse TMPRSS6
Description: as §1

Row | Binder | binding result [1] | binding result [2] | binding result [3]
1 | hzMWTx-001Var anti-TMPRSS6 antibody (antibody, human IgG1, kappa, N297A, V domains shown, Humanized variant of MWTx-001, human IgG1/kappa) VH: EVQLVQSGAEVKKPGASVKVSCKASGYTFTSYWITWVRQAPGQRLEWIGNIYPGSGSTYYNEKFKSKATITRDTSSRTAYMELSSLRSEDTAVYYCAPYDADYAMDYWGQGTLVTVSS VL: DIQMTQSPSSLSASVGDRVTITCKASQDISNYLSWFQQKPGKAPKLLIYRANRLVEGVPSRFSGSGSGTDFTLTISSLQPEDFATYFCLQYDEFPLTFGGGTKVEIKR | binds |  | 
2 | MWTx-001 anti-TMPRSS6 antibody (antibody, mouse IgG2a, kappa, V domains shown, Mouse monoclonal antibody from a hybridoma (ATCC PTA-126759)) VH: QVQLQQPGAELAKPGASVKMSCKASGYTFTSYWITWVKQRPGQDLEWIGNIYPGSGSTYYNEKFKSKATLTVDTSSRTAYMQLSSLTSADSAVYYCAPYDSDYAMDYWGQGTSVTVSS VL: DIKMTQSPSSMYASLGERVTITCKASQDINNYLSWFQQKPGKSPKTLIYRANRLVDGVPSRVSGSGSGQDYSLTISSLEYEDVGIYFCLQYDEFPLTFGAGTKLELKR | binds |  | 
3 | hzMWTx-003Var anti-TMPRSS6 antibody (antibody, human IgG1, kappa, L234A L235A, V domains shown, Humanized variant of MWTx-003, human IgG1/kappa) VH: QVQLVQSGAEVKKPGASVKVSCKASGFNIEDYYMHWVRQAPGQRLEWMGRIDPEDAETTYSPKFQGRVTIIPDTSANTAYMELSSLRSEDTAVYYCARSIYLDPMDYWGQGTLVTVSS VL: DIQMTQSPKSLSASVGDRVTITCRASQDVTTALAWYQQKPGQSPKLLIYWATTRHSGVPSRFSGSGSGTDFTLTISSLQPEDFATYYCQQHYSTPYTFGQGTKLEIKR | binds |  | 
4 | hzMWTx-002Var anti-TMPRSS6 antibody (antibody, human IgG1, kappa, N297A, V domains shown, Humanized variant of MWTx-002, human IgG1/kappa) VH: EVQLVQSGAEVKKPGASVKVSCKASGFNIKDYYIHWVRQATGQGLEWMGRIDPEDAESEYAPKFQGRVTITADTSTDTAYMELSSLRSEDTAVYYCTRGDSMMVTYFDYWGQGTLVTVSS VL: DIQMTQSPSSLSASVGDRVTITCKASQDVSTAVAWYQQKPGKAPKLLIYWAFTRHTGVPSRFSGSGSGTDYALTISSLQPEDFATYYCQQHYRSPWTFGGGTKVEIKR | binds |  | 
5 | MWTx-003 anti-TMPRSS6 antibody (antibody, mouse IgG2b, kappa, V domains shown, Mouse monoclonal antibody from a hybridoma (ATCC PTA-126761); also called r4K12B (recombinantly expressed version, same HC and LC)) VH: EVQLQQSGAELVKPGASVKLSCTASGFNIEDYYIHWVKERTEQGLEWIGRIDPEDGETTYAPQFQGKATIIPDTSSNTAYMQLSSLTSEDAAVYYCARSIYLDPMDYWGQGTSVTVSS VL: DIVMTQSHKFMSTSVGDRVSITCKASQDVTTAVAWYQQKPGQSPKILIYWATTRHTGVPDRFTGSISGTTYILTISSVQAEDLALYYCQQHYSTPYTFGGGTKLEIKR |  | binds | 
6 | MWTx-002 anti-TMPRSS6 antibody (antibody, mouse IgG2b, kappa, V domains shown, Mouse monoclonal antibody from a hybridoma (ATCC PTA-126760)) VH: EVQLQQSGAELVKPGASVKLSCTASGFNIKDYYIHWVKERTEQGLEWFGRIDPEDGESEYAPKFQGKATLTADTSSNTAYLQLSSLTSEDTAVYYCTRGDSMMVTYFDYWGQGTTLTVSS VL: DIVMTQSHKFMSTSVGDRVSITCKASQDVSTAVAWYQQKPGQSPKLLIYWAFTRHTGVPDRFTSTGSGTDYALTISSVQAEDLALYYCQQHYRSPWTFGGGTKLEIKR | binds |  | no binding
